Columns and labels:
syt2_rat Syt2 [1] = molecular target: syt2_rat Syt2 (UniProt P29101)
syt2_rat Syt2 [2] = molecular target: syt2_rat Syt2 (UniProt P29101); remark: listed apart in the source

syt2_rat Syt2, sequence (P29101 whole entry): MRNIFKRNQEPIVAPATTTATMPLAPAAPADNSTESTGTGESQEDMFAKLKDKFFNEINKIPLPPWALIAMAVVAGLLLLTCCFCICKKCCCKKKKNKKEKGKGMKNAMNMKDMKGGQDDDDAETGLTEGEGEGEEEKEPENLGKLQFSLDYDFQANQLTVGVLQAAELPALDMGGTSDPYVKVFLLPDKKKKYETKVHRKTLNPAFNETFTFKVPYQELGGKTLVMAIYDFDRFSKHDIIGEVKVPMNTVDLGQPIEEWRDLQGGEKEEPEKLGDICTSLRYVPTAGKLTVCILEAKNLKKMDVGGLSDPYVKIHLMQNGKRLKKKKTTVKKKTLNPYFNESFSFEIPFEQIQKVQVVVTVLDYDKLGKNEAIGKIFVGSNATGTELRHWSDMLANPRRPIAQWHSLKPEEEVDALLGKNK

effect of a mutation on the interaction (syt2_rat Syt2 [1]) | effect of a mutation on the interaction (syt2_rat Syt2 [2]) | Substance
decreasing interaction |  | Serine/threonine-protein kinase WNK1 (Rattus norvegicus (Rat)), Q9JIH7 V318E
 | decreasing interaction | Serine/threonine-protein kinase WNK1 (Rattus norvegicus (Rat)), Q9JIH7 V318D
